The values that follow come from paper PMC10002728.

What all share (assay): SPR
(In general: In SPR one partner is held on a chip, and binding of the other changes the refractive index at the surface.)

Experiment [1] concerns the target B. hermsii strain HS1 FbpC C-terminal complement inhibitory domain, residues 212-374 (Borrelia hermsii strain HS1).
Experiment [2] concerns the target FbpC-C R248A (Borrelia hermsii strain HS1).
Experiment [3] addresses FbpC-C H252A (Borrelia hermsii strain HS1).

B1: human complement C1r, zymogen form (enzyme)
chain: SIPIPQKLFGEVTSPLFPKPYPNNFETTTVITVPTGYRVKLVFQQFDLEPSEGCFYDYVKISADKKSLGRFCGQLGSPLGNPPGKKEFMSQGNKMLLTFHTDFSNEENGTIMFYKGFLAYYQAVDLDECASRSKSGEEDPQPQCQHLCHNYVGGYFCSCRPGYELQEDTHSCQAECSSELYTEASGYISSLEYPRSYPPDLRCNYSIRVERGLTLHLKFLEPFDIDDHQQVHCPYDQLQIYANGKNIGEFCGKQRPPDLDTSSNAVDLLFFTDESGDSRGWKLRYTTEIIKCPQPKTLDEFTIIQNLQPQYQFRDYFIATCKQGYQLIEGNQVLHSFTAVCQDDGTWHRAMPRCKIKDCGQPRNLPNGDFRYTTTMGVNTYKARIQYYCHEPYYKMQTRAGSRESEQGVYTCTAQGIWKNEQKGEKIPRCLPVCGKPVNPVEQRQRIIGGQKAKMGNFPWQVFTNIHGRGGGALLGDRWILTAAHTLYPKEHEAQSNASLDVFLGHTNVEELMKLGNHPIRRVSVHPDYRQDESYNFEGDIALLELENSVTLGPNLLPICLPDNDTFYDLGLMGYVSGFGVMEEKIAHDLRFVRLPVANPQACENWLRGKNRMDVFSQNMFCAGHPSLKQDACQGDSGGVFAVRDPNTDRWVATGIVSWGIGCSRGYGFYTKVLNYVDWIKKEMEEED
B1: in experiment [1], the Kd (in general, the equilibrium constant for the complex coming apart) was 1.2 nM; the koff (as a rule, the rate constant with which the complex falls apart) was found to be 5.4e-05 s⁻¹; the kon (as a rule, the rate constant with which the complex forms) stood at 44000 M⁻¹ s⁻¹. In experiment [2], the Kd was 13 nM, the koff turned out to be 0.00063 s⁻¹ and the kon amounted to 69000 M⁻¹ s⁻¹.

B2: human complement C1r, activated form (enzyme)
chain: SIPIPQKLFGEVTSPLFPKPYPNNFETTTVITVPTGYRVKLVFQQFDLEPSEGCFYDYVKISADKKSLGRFCGQLGSPLGNPPGKKEFMSQGNKMLLTFHTDFSNEENGTIMFYKGFLAYYQAVDLDECASRSKSGEEDPQPQCQHLCHNYVGGYFCSCRPGYELQEDTHSCQAECSSELYTEASGYISSLEYPRSYPPDLRCNYSIRVERGLTLHLKFLEPFDIDDHQQVHCPYDQLQIYANGKNIGEFCGKQRPPDLDTSSNAVDLLFFTDESGDSRGWKLRYTTEIIKCPQPKTLDEFTIIQNLQPQYQFRDYFIATCKQGYQLIEGNQVLHSFTAVCQDDGTWHRAMPRCKIKDCGQPRNLPNGDFRYTTTMGVNTYKARIQYYCHEPYYKMQTRAGSRESEQGVYTCTAQGIWKNEQKGEKIPRCLPVCGKPVNPVEQRQRIIGGQKAKMGNFPWQVFTNIHGRGGGALLGDRWILTAAHTLYPKEHEAQSNASLDVFLGHTNVEELMKLGNHPIRRVSVHPDYRQDESYNFEGDIALLELENSVTLGPNLLPICLPDNDTFYDLGLMGYVSGFGVMEEKIAHDLRFVRLPVANPQACENWLRGKNRMDVFSQNMFCAGHPSLKQDACQGDSGGVFAVRDPNTDRWVATGIVSWGIGCSRGYGFYTKVLNYVDWIKKEMEEED
With B2, the Kd in experiment [3] was 2.4 nM; in experiment [1], 0.3 nM; in experiment [2], 0.19 nM. The values for the koff in experiment [3], in experiment [1] and in experiment [2] were 0.00012 s⁻¹, 1.4e-05 s⁻¹ and 9.4e-06 s⁻¹, respectively. For the same molecule, the kon in experiment [3] is 51000 M⁻¹ s⁻¹; in experiment [1] it was 48000 M⁻¹ s⁻¹; in experiment [2], 45000 M⁻¹ s⁻¹.
